According to patent US20250026791A1, “CYCLIC PEPTIDE CYCLIZED IN AROMATIC NUCLEOPHILIC SUBSTITUTION REACTION, AND PEPTIDE LIBRARY, PRODUCTION METHOD, AND SCREENING METHOD FOR SAME” (UNIVERSITY OF YAMANASHI, priority 2021, published 2025):
*1 amine or outer side, *2 acyl side, *3 side chain or, on linkers, in order; H or OH if unused. Where no end group is shown, it is not given here. The star is where a group is joined. Lys(Biotin) = O=C(CCCC[C@@H]1SC[C@@H]2NC(=O)N[C@@H]21)NCCCC[C@H](N[*:1])C(=O)[*:2]; F5Ph = Fc1c(F)c(F)c(*)c(F)c1F; FNO2Ph = not defined here; Ahx = NCCCCCC(=O)O

Columns and labels:
Format in all cases: binding
[1] = target: T1, PCSK9 (Homo sapiens, UniProt Q8NBP7); experiment: HRP-labeled peptide pulled down with PCSK9-immobilized beads, chemiluminescence detection; conditions: without presentation by cDNA-mRNA dimer, FIGS. 16, 17, 25
Procedure: Peptide 1-1 and Peptide 2-1 were labeled via horseradish peroxidase (HRP)-labeled streptavidin. Each peptide of HRP-labeled Peptide 1-1 and Peptide 2-1 was pulled down with PCSK9-immobilized beads. HRP substrate was added to PCSK9-immobilized beads and chemiluminescence was detected using LuminoGraph III (ATTO).
The PCSK9 binding activity of HRP-labeled Peptide 1-1 (monomer) and the dimer of Peptide 1-1 (Peptide A) were analyzed by PCSK9 pull-down and chemiluminescence detection.
Peptide C was labeled via HRP-labeled streptavidin. Based on the same method as in Experimental Example 7, the PCSK9 binding activity of HRP-labeled Peptide C was analyzed by PCSK9 pulldown and chemiluminescence detection.

[2] = target: His-tagged PCSK9 (Homo sapiens, UniProt Q8NBP7); experiment: His-tagged PCSK9 (HRP-conjugated anti-His-tag antibody) pulled down with peptide-immobilized streptavidin beads, chemiluminescence detection; conditions: peptide on streptavidin beads pulls down His-tagged PCSK9; FIGS. 18 and 19
Procedure: Each of Peptide 1-1 and peptide 2-1 was conjugated to streptavidin beads. His-tagged PCSK9 was labeled via HRP-conjugated anti-His-tagged antibody. The complex of PCSK9 and HRP was pulled down with Peptide 1-1 or Peptide 2-1 immobilized beads. HRP substrates were added to the peptide-immobilized beads and chemiluminescence was detected using LuminoGraph III (ATTO).

[3] = target: T1, PCSK9; experiment: Collection rate of cDNA/mRNA presenting cyclized peptide against PCSK9-immobilized beads; conditions: for collection rate against PCSK9, Peptide 2 (WT) versus Peptide 3 (C17S): FIG. 13, C17 replaced with serine
Procedure: Site-specific biotinylated human PCSK9 was immobilized on streptavidin-modified magnetic beads. Fc fusion protein of human PCSK9 was immobilized on protein A-modified magnetic beads. Immobilization of PCSK9 was confirmed by sodium dodecyl sulfate polyacrylamide gel electrophoresis and staining with Coomassie brilliant blue.
Each of the mRNA-presenting FNO2Ph and F5Ph cyclized peptide libraries was incubated with PCSK9-immobilized streptavidin-modified beads as positive selection. After removal of the supernatant, the beads were washed with HBS-T. cDNA encoding the peptide binding to the PCSK9-immobilized beads was PCR amplified with Taq DNA polymerase. The amplified PCR product was used for the next round of SELEX.
After the positive selection, cDNA encoding peptides that bind to PCSK9 immobilized beads was amplified by PCR and quantified by qPCR using SYBR green.
Each collection rate of the cDNA/mRNA presenting FNO2Ph cyclized peptide with the amino acid sequence of SEQ ID: 4 (hereafter referred to as Peptide 1) and the cDNA/mRNA presenting F5Ph cyclized peptide with the amino acid sequence of SEQ ID: 14 (hereafter referred to as Peptide 2) against PCSK9 was determined. […] beads were used as negative controls.
Peptide 3 (SEQ ID: 27) was prepared by replacing C17 in Peptide 2 (F5Ph is the first amino acid) with serine. Each collection rate of Peptide 2 (WT) and Peptide 3 (C17S) against PCSK9 was measured (FIG. 13).

[4] = tested on: human IL-5; experiment: Collection rate of cDNA/mRNA presenting cyclized peptide against IL-5; conditions: compared with IL-5 non-immobilized beads (FIGS. 29 and 30)
Procedure: We checked whether the screening in Experimental Example 2 is applicable to compounds other than human PCSK9. Screening was performed for peptides that bind to human IL-5 as compounds other than human PCSK9.
Each collection rate of cDNA/mRNA presenting FNO2Ph cyclized peptide with the amino acid sequence of SEQ ID: 66 (hereafter referred to as Peptide 4) and cDNA/mRNA presenting F5Ph cyclized peptide with the amino acid sequence of SEQ ID: 69 (hereafter referred to as Peptide 5) against IL-5 was determined. IL-5 non-immobilized beads were used as a negative control. […] From the above, it was possible to screen for human IL-5 which is a compound other than human PCSK9.

T1 sequence (Q8NBP7 153-692): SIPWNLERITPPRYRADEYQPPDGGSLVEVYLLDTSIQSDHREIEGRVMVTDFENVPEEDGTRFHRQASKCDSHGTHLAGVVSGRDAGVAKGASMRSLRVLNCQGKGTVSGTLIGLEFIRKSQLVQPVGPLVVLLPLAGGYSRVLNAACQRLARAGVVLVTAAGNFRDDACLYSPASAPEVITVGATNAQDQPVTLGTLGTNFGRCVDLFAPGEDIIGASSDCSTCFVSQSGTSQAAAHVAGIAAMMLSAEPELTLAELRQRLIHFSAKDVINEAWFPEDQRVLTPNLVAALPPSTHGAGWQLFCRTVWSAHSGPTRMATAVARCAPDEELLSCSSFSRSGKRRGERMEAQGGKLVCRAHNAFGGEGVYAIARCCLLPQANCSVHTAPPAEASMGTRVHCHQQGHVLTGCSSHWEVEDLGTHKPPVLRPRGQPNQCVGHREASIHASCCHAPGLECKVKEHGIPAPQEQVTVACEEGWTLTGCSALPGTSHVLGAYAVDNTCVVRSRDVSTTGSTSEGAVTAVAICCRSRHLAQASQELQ
Sequence of human IL-5 (P05113 20-134): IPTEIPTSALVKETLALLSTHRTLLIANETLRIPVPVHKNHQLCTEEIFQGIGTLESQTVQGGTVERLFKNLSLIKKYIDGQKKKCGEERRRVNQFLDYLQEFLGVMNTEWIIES
Sequence of His-tagged PCSK9 (Q8NBP7 153-692): as the sequence (Q8NBP7 153-692) above

Row | Substance | PCSK9 binding activity [1] | collection rate against PCSK9, Peptide 2 (WT) versus Peptide 3 (C17S) [3] | collection rate against IL-5 [4] | further results
1 | Peptide 2: F5Ph cyclized peptide with amino acid sequence of SEQ ID: 14 (RGHCWLYVYFPVRSLC), cDNA/mRNA presented (F5Ph-RGHCWLYVYFPVRSLC; thioether (positions not given here); not fully specified (bridges)) | – | C17 in Peptide 2 was found to be critical for Peptide 2 binding to PCSK9 | – | collection rate against PCSK9 ([3]; cDNA/mRNA presenting peptide, compared with negative control beads (FIGS. 10 and 11)): higher than that of the negative control
2 | Peptide 4: FNO2Ph cyclized peptide with amino acid sequence of SEQ ID: 66 (LLLMWCAVLVVLRWRRR), cDNA/mRNA presented (bridge (positions not given here) via FNO2Ph; reading uncertain; also: FNO2Ph cyclization, places not given here) | – | – | higher than those of the negative control | –
3 | Peptide 5: F5Ph cyclized peptide with amino acid sequence of SEQ ID: 69 (HSPFTFQHC), cDNA/mRNA presented (bridge (positions not given here) via F5Ph; also: F5Ph cyclization, places not given here) | – | – | higher than those of the negative control | –
4 | Peptide 3: SEQ ID: 27; C17 in Peptide 2 (F5Ph is the first amino acid) replaced with serine (F5Ph-RGHCWLYVYFPVRSLS; thioether (positions not given here); not fully specified (bridges)) | – | C17 in Peptide 2 was found to be critical for Peptide 2 binding to PCSK9 | – | –

The next lines start with results.

Row | PCSK9 binding activity [1] | Substance | collection rate against PCSK9, Peptide 2 (WT) versus Peptide 3 (C17S) [3] | collection rate against IL-5 [4] | further results
5 | have binding activity to PCSK9 | Peptide 2-1: chemically synthesized FNO2Ph cyclized peptide (as printed), SEQ ID: 14, C-terminal spacer of three Ahx and biotinylated lysine (RGHCWLYVYFPVRSLC-{Ahx-Ahx-Ahx-K(biotin)-NH2}; thioether (positions not given here); not fully specified (N-terminus, bridges); also: FNO2Ph cyclization, places not given here) | – | – | PCSK9 binding activity [2]: have binding activity to PCSK9
6 | have binding activity for PCSK9 | Peptide C: FNO2Ph cyclized peptide, SEQ ID: 35: two methionines of SEQ ID: 28 replaced with isoleucine; three Ahx spacer, biotinylated lysine (RWRFYSGIRNREIDC-{Ahx-Ahx-Ahx-Lys(Biotin)-NH2}; not fully specified (N-terminus, bridges); also: FNO2Ph cyclization, places not given here) | – | – | –
